Source: the DeepSol protein solubility set

assay: soluble on expression in E. coli; label from the status in PepcDB or PDB records

| Sequence | soluble on expression in E. coli |
| --- | --- |
| MFYITSKKVPFVTYSKNVFIPVTNICRNQCGYCGFRREPGQPGARLMKPEEVISVLENGVRAGCTEALFTFGERAEEVPGYGEMLEEIGYSSTLEYLVFLCETAIDIGILPHTNAGIMTRSELEALKPLNASMGLMLESTAVLAAHKDCPGKIPERRLETIREAGKLKIPYTTGLLIGIGESRDDRIESLEAIAALHREYGHIQEVIIQNFAPKPGTEMENFPEPAVEEMMDSVELAARILPGDVAVQVAPNLIDPKSLIAKGVTDLGGISPLTIDWINPEAEWPDVKNLQKKLGDIPLKERLPVYPPYVKKGWYSERIGSLIKRLSDNSGYLEHHHHHH | not soluble |
| MAIGFICSSPDAELFSEKSRMSSSVLLGCLLCCMDWSAAVPGKTEPFRKLFDAIMIKKLKSCSAAYPSDLDEGSMCDMADASPTSLELGLSKLDKES | not soluble |
| MAGQEDPVQREIHQDWANREYIEVITSSIKKIADFLNSFDMSCRSRLATLNEKLTALERRIEYIEARVTKGETLT | soluble |
| ADILLLDNIDSFTWNLADQLRTNGHNVVIYRNHIPAQTLIDRLATMKNPVLMLSPGPGVPSEAGCMPELLTRLRGKLPIIGICLGHQAIVEAYGGYVGQAGEILHGKATSIEHDGQAMFAGLANPLPVARYHSLVGSNVPAGLTINAHFNGMVMAVRHDADRVCGFQFHPESILTTQGARLLEQTLAWAQQK | soluble |
| MGSDKIHHHHHHMDTVNYTHHLSTFVDVVRAGSFSAVARRQGMKPSSIARKIDMLEDYFGAALFVRSTRALMLTDVGEVLVARAEVILNELNAMRVEIKSIKDNLDGPLRISCLPTFGKLHILPWLPKLRENFPRMTVELDLTERIANPSIERLDAVLRIGPLNDSGLYAKTIGVQRWLVCASPAYVGRSGKPAGWSQLAGHAIVDKLHDPAGICWHGALDPQQYSAMSIGFRCNDFDGLRQAALGGLGLAYLPDWVALPDITAGRLVKLFDDSKRGDEPISLLRASSKPSARLQIFHDALLDHLRKFSETGYGVE | not soluble |
| SASWLPETLFEIVGQGPAPSKDYYQLLITRTQIIFRWWKISLRSEYRSAKPGETKESHEDFLDNSHLQVQVAVVFGTKILDYVFNLCEGKFDYLERLSDRLLLKIICYLDLEDIASLSQTSSKFEKLCKSDLLWEQIVQSTCDTITPDMRALAKNMGWRQMFLTNNIQLQRQTRKKKQRQENQAEKLA | soluble |
| GPGSMFRKAESAHAAINATHLTQPTPNCGTVLHVSIAMHDEGLDDHPNDRLFIRGLPQWATKEHLRQMFAPYGVITECAVLMNPLGQCKGSGFVQFSSQQEATAAIKARDSISMDNWPNQLEVKYSESAEVRQMRQERNRNRQRHWLPSPQYRGGNTPSSLPSPYPGFSPPLSLIPSPQAFPVMNAMPFSMVYSPTPATTGAP | soluble |
| MGSDKIHHHHHHMGILQTMFIGFDYGTANCSVAVMRENTPQLLTLENGSTLLPSMLCAPTREAVSEWLYRHHDVPTHSDENQALLRRAIAANRDEDIEVLRNSVQFGLASLQQYVEDPQEVYFVKSPKSFLGASGLKPQQVALFEDLVCAMMLHIKLQAESQLPEQIDQAVIGRPINFQGLGGDEANAQAQGILERAAHRAGFRDVVFQFEPVAAGLDFEATLSEEKRVLVVDIGGGTTDCSLLLMGPQWRERADRQQSLLGHSGCRIGGNDLDIALAFKCLMPLLGMGGETEKGTALPILPWWNAVAINDVPAQSDFYSTANGRLLNDLLRSARDADKVALLLKVWRQRLSYRLVRSAEESKIALSSAASVETALPFIQDDLATAIAQQGLEAALDQPLTRIMEQVRLALDSSQTTPDVIYLTGGSARSPLIKKALAAQLPGIPLAGGDDFGSVTAGLARWAQVVFR | not soluble |
| MQSEKIAQLKAALQNFSASNSDLFDYALEEEKAKVRKRALLLLDQRARSVYELTNRLISADFDPNIVEYVVEDLVRANLLNDENFSREWVRQRRQRRGKSRQALTRELRDKGIKSEIIADVVGDIQPEDEQDIARELAYKKVRSLKKEPCDYPEYQKVLRRTVGVLARRGFSQSMALEIAREAIDARIDEIRR | not soluble |
| MSLREAVLANLKKITDPVSGQDIVSAGIVRALNVEGDTVRFVIEIDPKLAERMEPVRAAAEKAAQMVEGVAKVSAMMTAHSDKAPPELKPRAKAAPQGPQPVAGVDRIVAVASGKGGVGKSTVSANLACALAAEGRRVGLLDADVYGPSQPRMLGVSGRPASPDGKTILPLRNHGVTMMSMGLMTNEGQAVVWRGPMLMGALQQMMNQVQWGGLDVLIVDLPPGTGDVQLTLSQKFAVDGAIIVSTPQDVALIDARKGIDMFRQLKTPILGMIENMSTHICSNCGHEEHVFGHGGVAAEAEKLGVPLLGEIPLHLDIRVAADGGAPIVVSKPDSPQAEAFRRIARDLIAKGQALEHHHHHH | soluble |
| MRIVVTRPQRSGERTAAKLEALGHAPVLLPLFHPIHHGERATSALSDPAGAIAVTSAEALRALATCEEQLAPYLSKPLFAVGGATAEAAQETGFEQIFTASGDALGLTVLVKQHRAFLTEEEPLLYLAGRPRGSVFEEGLAAAGIPFRTVDCYEMLPSDISENTLETTLLDTTADMVLLYSSEAARAFFHHVSADKYVTALAATKFICISRNVLFLVPEIFRANAKAAEEPSEAAMFELLHHNSGTLEHHHHHH | soluble |
| MGSDKIHHHHHHMESKSAVQLYLELLKKTILFEIWLEYEAYLPASLHISKELEFEPVTVPLPLFIKQYAENHNLKIVKPNVSKSERHDGMDWPRAAHSMIGRERMNQLQEAMETVVRENIEGDFIETGVWRGGSCIFMNGFLQANNITDRNVWVADSFEGLPAPNLEQYPKDYGDYLHTFDYLRVSLEQVQENFKKYDLLNDQVKFLKGWFKDTLPTAPIAAIAIARLDGDMYESTMDGLVNLYDKVSKGGYIIIDDYGLPPCAEAVTDFRNHRNLKAPITKIDVFGVYWRKE | not soluble |
| MSLRVMIVDDHGTNRELCRFILAHIASHIDTFEDGQQAIDAMREMEILPDVILLDVMMPIKDGFVTAKEIRQAFVKHHIPIIFLTVLDDRDSFEKCLALGDDFILKPVERSVLIAKVQAHYRIVKMHNEGHHHHHH | not soluble |
| MNSRQQTILQMVIDQGQVSVTDLAKATGVSEVTIRQDLNTLEKLSYLRRAHGFAVSLDSDDVETRMMSNYTLKRELAEFAASLVQPGETIFIENGSSNALLARTLGEQKKNVTIITVSSYIAHLLKDAPCEVILLGGVYQKKSESMVGPLTRQCIQQVHFSKAFIGIDGWQPETGFTGRDMMRTDVVNAVLEKECEAIVLTDSSKFGAVHSYSIGPVERFNRVITDSKIRASDLMHLEHSKLTIHVVDILEHHHHHH | soluble |
| MSDQMRIPCVIMRAGTSKGIFLKGNDLPADQELRDKVILRIFGSPDVRQIDGLAGADPLTSKLAIIGPSTHPDADVDYTFAQVSITDAVVDYNGNCGNISAGVGPFAIDESFVKAVEPMTRVCIHNTNTGKLLYAEVEVEDGKAKVSGDCKIDGVPGTNAPELMDFSDTAGAATGKVLPTGNVVDVLSTSKGDIDVSIVDVANPCIFVHAKDVNMTGTETPDVINGNADLLAYLEEIRAKCCVKIGMAATEKEASEKSPAFPMIAFVTKPEDYVDFSTGNTISGDDVDLVSRLMFMQVLHKTYAGTATACTGSAARIPGTIVNQVLRDTGDEDTVRIGHPAGVIPVVSIVKDGKVEKAALIRTARRIMEGYVYVEKAKLVGSAWSHPQFEK | soluble |
| MGSDKIHHHHHHMQVRTFKGPSAKTVLDMIKAEIGPEAVILSSRDCSGDGVTWCEMTVGVEREAAAAPRMGRDEPAAGDQTPPAGWDEWHREWDEIKGHIMALMKPALRLDELAPRQRVALEYLEREGVEDNVILALYRRLRGAPSLSVLEPLSAVVPVKGWGGADWPQKMQIVCGPSGVGKTSAVVRMALALRRQNAGVRICVLNADSQRGSGRMVLRHYAELCGMGYHEISGPADAAALLGELDGYDKILVDTPVPGRGATLRSLLEETGLDVLEQQVPAAVQLVMSPLYGDAQISFFLRQYECGLPCGLVWTKLDEACNFGALINVPAASGLPVTALSFGSGLKNSLASARGTMIWRLVFKKQLPGDVAAR | not soluble |
| MMKQHLDALKDSKYCPLWHDQDIRPETLPALSADTSCELLIVGGGFTGLWGALQAKERQPDADIILIEKTTISDGASGRNGGFLSSSLAHGETNTDHQFPGEADKLHQLGQQNLKEFIETLEHYNIDARYEKVGETSVATDQASVDALRATYESEKAQGEDVVWFNQEEMQAQVNSPTYLAGLWYRGGQDGVVDPARLCWGLKRVILELGVRIYEETPLTSLKKLGQDKMEVTCSDVKIISDKVLMATNAYRNPIGQARRSIIPVWDYQIATQPLSQEQLDSIGWHKSRHALSNHANMFHYYRFTKDNRITWGGGGAVRYYFNNGIDQSYADIPERFAQLSEEFFETFPQLKGIKFTHRWSGIIATSTRFCVVPGVAYDGRVAWAIGYTGLGVGASRFGARIGIELLGYKPSEILDMQFVKKKPIPWAPEPLRWIGVYLTHKALEKADANGGKRGLWLKLLDMLNLGFTCLEHHHHHH | not soluble |
| MSLIAVLRINHRPFRDKRITTHVALTARAFGASSILVDEKDETLEQTINKVVENFGGNFFIKSGVDWKREFRNFKGIRVHLTMYGRPLEDVVKEIRESKKDVMILVGSEKVPFEAYEIADYNVSVTNQPISEVSALAIFLDRFYDGEELNWRFTGKINVYPSERGKKVKIIPDEQGCLDLLYKYGASDYLINHVKSVKELAVAIAKKTNADINLVTAGALLHDIGRTQVQGITHAVVGADILRREGIDDRVVSIVEKHIGAGIQSEEAVKLGLPPDNYVPETIEEMIVAHADNLFAGDKRLKLQQVVDNYRKKGLEDAAERIAKLHKFLSTVIGQDMDEIEGHHHHHH | soluble |
| MSLTVIIKSMETPEEIEGKSLVHWQTWRESYDDLLPAEFQDTMTLERCRFFSQKYPENTLIAMDGVKVVGFISYGNFRDETIQAGEIIALYVLKDYYGKGIAQKLMKAALTALNHFSEIFLWVLKDNKRAIAFYQKMGFTFDGQEKILELGKPIKEKRMVFYSKEGHHHHHH | soluble |
| MAHHHHHHMQTGPFAAVTRVPDHVRNMILNEIASENIWLFDRGRCEAVTVGDMRSSSFSIPMAESPPAVGCELDNNEHLLLYDLMRVRNGQVMFENDHFSRIRQNCILTAPTACDAANVSEDEDLGKLSTYIEGVRSTTRDFIKCNPWENGDVNLKFVTWVLPSQLSDVSTAERRSELLRTLSYAVYYVTSFFPPEDWYEEGTRYAMLYDAQRHTPNAKILQVPLRERAKALQQTTNAFEVLLVSDNRRHYLVPEGSRSNYLIVSGDESLLCSLEEDILVGITLRVARRAAACARLPPLRHRKLVLGDICLAKSIAMLGTSPGVLPIKEIQVFYDEESKQNFLLAMEDYMQDKDEEIQRAVINVRGRILNDDGLLRLESPSCDTLKRLRAAYEAEALL | not soluble |
| GHMASNVANDGERPSRVVELTDETFDSIVMDPEKDVFVLYYVPWSRHSVAAMRLWDDLSMSQSQKRNHLTFVAARIDGEKYPDVIERMRVSGFPTMRYYTRIDKQEPFEYSGQRYLSLVDSFVFQNT | soluble |
| SLVTRVTLAPGVRVMVAPYPPFLLPLQGRLNCLYMRLRSPVVVPPGDSFSIELKVPFDIAVIASSKGRHTLIDFFPPGGVVPKMAVYGSNVEGLLCRFWRDEWRGPAASARLTIVNNADVQATVSRVVLPRRGLSMFYNPVTGGIAASPIRMSVRDIDSADVWLEEAEPGEGFIEVPLVERDRRLFEALGPLVPGRIAMIWGI | not soluble |
| MEDEIRKAAEILAKSKHAVVFTGAGISAESGIPTFRGEDGLWRKYDPEEVASISGFKRNPRAFWEFSMEMKDKLFAEPNPAHYAIAELERMGIVKAVITQNIDMLHQRAGSRRVLELHGSMDKLDCLDCHETYDWSEFVEDFNKGEIPRCRKCGSYYVKPRVVLFGEPLPQRTLFEAIEEAKHCDAFMVVGSSLVVYPAAELPYIAKKAGAKMIIVNAEPTMADPIFDVKIIGKAGEVLPKIVEEVKRLRSEK | soluble |
